B1: R2A1-8E hIgG1 (antibody, V domains shown)
VH: QVQLQQSGPGLVKPSQTLSLTCAISGDSVSSNSAAWNWIRQSPSRGLEWLGRTYYRSKWYNDYAVSVKSRITINPDTSKNQFSLQLNSVTPEDTAVYYCARDSSSGWHPYGMDVWGQGTTVTVSS
VL: DIQVTQSPSFLSASVGDRVTITCRASHDISSYLAWYQHKPGKAPKLLIHAASILQSGVPSRFSGSGSGTEFTLTISSLQPEDFATYYCQQLNSYPLLTFGGGTKVDIKR
notes: full-length human IgG1/kappa made in HEK293E; heavy chain constant region with N297G; also called mAb R2A1-8E
B2: 33mer α-gliadin peptide (peptide)
peptide: LQLQPFPQPELPYPQPELPYPQPELPYPQPQPF
B3: R3A2-9F hIgG1 (antibody)
heavy: not shown
light: DIQVTQSPSFLSASVGDRVTITCRASHDISSYLAWYQHKPGKAPKLLIHAASILQSGVPSRFSGSGSGTEFTLTISSLQPEDFATYYCQDLNSYPLFGQGTRLEIKRTVAAPSVFIFPPSDEQLKSGTASVVCLLNNFYPREAKVQWKVDNALQSGNSQESVTEQDSKDSTYSLSSTLTLSKADYEKHKVYACEVTHQGLSSPVTKSFNRGEC
notes: also called mAb R3A2-9F
B4: R4A1-3A (107) hIgG1 (antibody, V domains shown)
VH: QVQLQQSGPGLVKPSQTLSLTCAISGDSVSSNSAAWNWIRQSPSRGLEWLGRTYYRSKWYNDYAVSVKSRITINPDTSKNQFSLQLNSVTPEDTAVYYCARDSSSGWHPYGMDVWGQGTTVTVSS
VL: DIQVTQSPSFLSASVGDRVTITCRASHDISSYLAWYQHKPWKAPKLLIHAASILQSGVPSRFSGSGSGTEFTLTISSLQPEDFATYYCQDLNSYPLFGQGTRLEIKR
notes: full-length human IgG1/kappa made in HEK293E; heavy chain constant region with N297G; also called mAb R4A1-3A
B5: 12mer DQ2.5-glia-α1a peptide (free) (peptide)
peptide: QLQPFPQPELPY
notes: also called free peptide
B6: 12mer DQ2.5-glia-α2 peptide (free) (peptide)
peptide: PQPELPYPQPQL
notes: also called free peptide

Legend:
33mer α-gliadin peptide = target: B2; test: competition ELISA, hIgG1 pre-incubated with competitor
Procedure: (§1) FIG. 2. […] (C) Eight different HLA-DQ2.5:gluten peptide complexes and HLA-DQ2.5:CLIP2 were used in ELISA for specificity analysis (n=2). mAb 2.12.E11 was included to control pMHC capture levels.
(§2) 96-well MaxiSorp microtiter plates (Nunc) were coated overnight at 4° C. with NeutrAvidin (Avidity, 10 ug/ml in PBS), before blocking with 4% skim milk powder in PBS (w/v). Biotinylated pMHC was captured onto the NeutrAvidin. […] 0.2 μg/ml mAb 2.12.E11 [Viken, H. D., et al., 1995] was detected using polyclonal anti-mouse IgG Fc-ALP (Sigma, 1:2000). […] Assays were performed at RT with duplicate wells, except for single clone screenings with only one well per sample.

[1] = target: B5; test: as above
Procedure: as §1, §2

[2] = target: B6; test: as above
Procedure: as §1, §2

R4A1-3A (107) hIgG1 [3] = target: B4; test: competition ELISA: 0.1 µg/ml hIgG1 pre-incubated with 33mer α-gliadin, then binding to plate-bound HLA-DQ2.5:DQ2.5-glia-α1a
Procedure: as §1, §2

R2A1-8E hIgG1 [4] = target: B1; test: as above
Procedure: as §1, §2

R3A2-9F hIgG1 [5] = target: B3; test: as above
Procedure: as §1, §2

BSA [6] = target: T1, BSA (Bos taurus, UniProt P02769); test: ELISA, hIgG1, control well with BSA
T1 construct: not specified; also called bovine serum albumin
T1 sequence (P02769 25-607 limits assumed): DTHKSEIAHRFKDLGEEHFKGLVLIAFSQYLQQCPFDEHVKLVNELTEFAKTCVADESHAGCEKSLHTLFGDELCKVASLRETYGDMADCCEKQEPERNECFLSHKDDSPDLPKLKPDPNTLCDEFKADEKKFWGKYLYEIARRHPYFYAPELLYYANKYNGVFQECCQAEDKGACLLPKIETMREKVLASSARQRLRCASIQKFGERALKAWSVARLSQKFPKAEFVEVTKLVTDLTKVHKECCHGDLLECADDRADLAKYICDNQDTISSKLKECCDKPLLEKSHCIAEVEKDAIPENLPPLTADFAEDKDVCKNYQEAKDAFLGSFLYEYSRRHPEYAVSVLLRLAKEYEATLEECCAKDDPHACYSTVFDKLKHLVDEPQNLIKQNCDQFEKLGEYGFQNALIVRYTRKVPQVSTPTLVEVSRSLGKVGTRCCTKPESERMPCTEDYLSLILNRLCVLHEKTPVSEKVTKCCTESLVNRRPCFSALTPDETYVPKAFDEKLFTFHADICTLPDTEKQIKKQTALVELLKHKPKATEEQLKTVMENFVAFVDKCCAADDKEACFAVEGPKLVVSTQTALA
Procedure: FIG. 14. […] The peptides are annotated according to Sollid, L. M., et al., (Immunogenetics, 2012, 64(6): 455-460) (A). […] Error bars illustrate mean±SD of duplicates. […] HSA=human serum albumin; BSA=bovine serum albumin.
Assays were performed at RT with duplicate wells. Between each layer, the plates were washed 3× with PBST.

BSA [7] = target: T1, BSA; test: ELISA, hIgG1 (printed anti-glia1a_no106), control well with BSA
R4A1-3A (107) hIgG1 [8] = target: B4; test: competition ELISA: 0.1 µg/ml hIgG1 pre-incubated with the competitor, then binding to plate-bound HLA-DQ2.5:DQ2.5-glia-α1a
Procedure: as §1, §2

R2A1-8E hIgG1 [9] = target: B1; test: as above
Procedure: as §1, §2

R3A2-9F hIgG1 [10] = target: B3; test: as above
Procedure: as §1, §2

| binding result (33mer α-gliadin peptide) | binding result [1] | binding result [2] | binding result (BSA [6]) | Binder | further results |
| --- | --- | --- | --- | --- | --- |
| no binding (tested: 1 µM) | no binding (tested: 1 µM) | no binding (tested: 1 µM) |  | B1 |  |
|  |  |  |  | B2 | binding result (R4A1-3A (107) hIgG1 [3]): no binding (tested: 1 µM); binding result (R2A1-8E hIgG1 [4]): no binding (tested: 1 µM); binding result (R3A2-9F hIgG1 [5]): no binding (tested: 1 µM) |
|  |  |  | no binding (tested: 0.5 µg/ml) | 220 hIgG1 (antibody, V domains shown, full-length human IgG1/kappa) VH: QVQLVESGAEVKKPGSSVKVSCKASGGTFSSYAISWVRQAPGQGLEWMGGIIPIFGTANYAQKFQGRATITADESTSTAYMELSSLRSEDTAVYYCARGRNTYCSGGSCYSPHFDYWGQGTLVTVSS VL: not shown |  |
| no binding (tested: 1 µM) | no binding (tested: 1 µM) | no binding (tested: 1 µM) |  | B3 | binding result (BSA [7]): no binding (tested: 0.5 µg/ml) |
| no binding (tested: 1 µM) | no binding (tested: 1 µM) | no binding (tested: 1 µM) |  | B4 |  |
|  |  |  |  | B5 | binding result (R4A1-3A (107) hIgG1 [8]): no binding (tested: 1 µM); binding result (R2A1-8E hIgG1 [9]): no binding (tested: 1 µM); binding result (R3A2-9F hIgG1 [10]): no binding (tested: 1 µM) |
|  |  |  |  | B6 | binding result (R4A1-3A (107) hIgG1 [8]): no binding (tested: 1 µM); binding result (R2A1-8E hIgG1 [9]): no binding (tested: 1 µM); binding result (R3A2-9F hIgG1 [10]): no binding (tested: 1 µM) |
|  |  |  | no binding (tested: 0.5 µg/ml) | 228 hIgG1 (antibody, V domains shown, full-length human IgG1/kappa) VH: QVQLVQSGAEVKKPGSSVKVSCKASGGTFSSYAISWVRQAPGQGLEWMGGIIPIFGTANYAQKFQGRVTITADESTSTAYMELSSLRSEDTAVYYCARGQVLIWTYYYGMDVWGQGTTVTVSS VL: DIRLTQSPSSLSASVGDRVTITCQASQDISNYLNWYQQKPGKAPKLLIYDASNLETGVPSRFSGSGSGTDFTFIISSLQPEDIATYYCQQYDNLPLTFGGGTKLEIKR |  |
|  |  |  | no binding (tested: 0.5 µg/ml) | 206 hIgG1 (antibody, V domains shown, full-length human IgG1/kappa) VH: QVQLVQSGAEVKKPGSSVKVSCKASGGTFSSYAISWVRQAPGQGLEWMGGIIPIFGTANYAQKFQGRVTITADESTSTAYMELSSLRSEDTAVYYCARDVQRMGMDVWGQGTTVTVSS VL: DIQMTQSPSSVSTSVGDRVTITCRASQDISNWLAWYQQKPGKAPKLLIYDSSTLQSGVPSRFSGSGSGTDFTLTISTLQPEDFATYYCQQFNSYPLTFGGGTKVDIKR |  |

Reference: US20210147552A1 (UNIVERSITETET I OSLO, published 2021)
